Data published in the supplement of paper PMC10567573.

B1: CHMP4C (parent)
chain: TNIRLPNVPSSSLPAQPNRKPGMS

Variants of: B1
Experiment: protein stability index of a GFP-peptide fusion (GPS, HEK-293T) (PSI 1-6); higher = more stable
Settings: c terminus: a fixed tail appended
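Note: lentivirally expressed fusions sorted by FACS into six bins by GFP to DsRed ratio, PSI derived from sequencing read proportions per bin multiplied by bin number.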

Variant | protein stability index
TNIRLPNVPSSSKPAQPNRKPGMS [L13K] | 4.46
TNIRLPNVPSSSWPAQPNRKPGMS [L13W] | 4.45
TNIRLPNVPSSSMPAQPNRKPGMS [L13M] | 4.6
TNIRLPNVPSSSCPAQPNRKPGMS [L13C] | 4.47
TNIRLPNVPSSSGPAQPNRKPGMS [L13G] | 4.27
TNIRLPNVPSSSFPAQPNRKPGMS [L13F] | 4.35
TNIRLPNVPSSSNPAQPNRKPGMS [L13N] | 4.52
TNIRLPNVPSSSDPAQPNRKPGMS [L13D] | 4.4
TNIRLPNVPSSSVPAQPNRKPGMS [L13V] | 4.88
TNIRLPNVPSSSTPAQPNRKPGMS [L13T] | 5.11
TNIRLPNVPSSSYPAQPNRKPGMS [L13Y] | 4.1
TNIRLPNVPSSSQPAQPNRKPGMS [L13Q] | 4.09
TNIRLPNVPSSSSPAQPNRKPGMS [L13S] | 4.76
TNIRLPNVPSSSEPAQPNRKPGMS [L13E] | 4.25
TNIRLPNVPSSSIPAQPNRKPGMS [L13I] | 4.54
TNIRLPNVPSSSAPAQPNRKPGMS [L13A] | 4.88
TNIRLPNVPSSSRPAQPNRKPGMS [L13R] | 4.82
TNIRLPNVPSSSHPAQPNRKPGMS [L13H] | 4.25
TNIRLPNVLSSSLPAQPNRKPGMS [P9L] | 3.85
TNIRLPNVSSSSLPAQPNRKPGMS [P9S] | 4.68
TNIRLPNVNSSSLPAQPNRKPGMS [P9N] | 4.89
TNIRLPNVGSSSLPAQPNRKPGMS [P9G] | 4.52
TNIRLPNVESSSLPAQPNRKPGMS [P9E] | 4.94
TNIRLPNVDSSSLPAQPNRKPGMS [P9D] | 4.77

Variant | protein stability index
TNIRLPNVVSSSLPAQPNRKPGMS [P9V] | 4.71
TNIRLPNVFSSSLPAQPNRKPGMS [P9F] | 4.22
TNIRLPNVTSSSLPAQPNRKPGMS [P9T] | 4.55
TNIRLPNVASSSLPAQPNRKPGMS [P9A] | 4.62
TNIRLPNVKSSSLPAQPNRKPGMS [P9K] | 4.78
TNIRLPNVMSSSLPAQPNRKPGMS [P9M] | 4.36
TNIRLPNVRSSSLPAQPNRKPGMS [P9R] | 4.45
TNIRLPNVHSSSLPAQPNRKPGMS [P9H] | 4.49
TNIRLPNVCSSSLPAQPNRKPGMS [P9C] | 4.33
TNIRLPNVISSSLPAQPNRKPGMS [P9I] | 4.3
TNIRLPNVQSSSLPAQPNRKPGMS [P9Q] | 5.12
TNIRLPNVWSSSLPAQPNRKPGMS [P9W] | 3.53
TNIRLPNVYSSSLPAQPNRKPGMS [P9Y] | 3.62
TNIRLFNVPSSSLPAQPNRKPGMS [P6F] | 3.28
TNIRLANVPSSSLPAQPNRKPGMS [P6A] | 3.96
TNIRLTNVPSSSLPAQPNRKPGMS [P6T] | 3.75
TNIRLDNVPSSSLPAQPNRKPGMS [P6D] | 4.36
TNIRLLNVPSSSLPAQPNRKPGMS [P6L] | 2.99
TNIRLWNVPSSSLPAQPNRKPGMS [P6W] | 3.34
TNIRLNNVPSSSLPAQPNRKPGMS [P6N] | 4.18
TNIRLMNVPSSSLPAQPNRKPGMS [P6M] | 3.36
TNIRLRNVPSSSLPAQPNRKPGMS [P6R] | 4.04
TNIRLVNVPSSSLPAQPNRKPGMS [P6V] | 3.1
TNIRLGNVPSSSLPAQPNRKPGMS [P6G] | 4.26

Variant | protein stability index
TNIRLCNVPSSSLPAQPNRKPGMS [P6C] | 3.56
TNIRLKNVPSSSLPAQPNRKPGMS [P6K] | 4.23
TNIRLHNVPSSSLPAQPNRKPGMS [P6H] | 3.02
TNIRLQNVPSSSLPAQPNRKPGMS [P6Q] | 3.19
TNIRLYNVPSSSLPAQPNRKPGMS [P6Y] | 2.66
TNIRLENVPSSSLPAQPNRKPGMS [P6E] | 4.48
TNIRLINVPSSSLPAQPNRKPGMS [P6I] | 2.71
TNIRLSNVPSSSLPAQPNRKPGMS [P6S] | 4.44
TNIRLPNVPSRSLPAQPNRKPGMS [S11R] | 4.79
TNIRLPNVPSDSLPAQPNRKPGMS [S11D] | 4.94
TNIRLPNVPSHSLPAQPNRKPGMS [S11H] | 4.6
TNIRLPNVPSESLPAQPNRKPGMS [S11E] | 4.1
TNIRLPNVPSWSLPAQPNRKPGMS [S11W] | 3.97
TNIRLPNVPSTSLPAQPNRKPGMS [S11T] | 3.48
TNIRLPNVPSMSLPAQPNRKPGMS [S11M] | 3.73
TNIRLPNVPSASLPAQPNRKPGMS [S11A] | 4.87
TNIRLPNVPSYSLPAQPNRKPGMS [S11Y] | 4.28
TNIRLPNVPSLSLPAQPNRKPGMS [S11L] | 4.01
TNIRLPNVPSGSLPAQPNRKPGMS [S11G] | 4.51
TNIRLPNVPSCSLPAQPNRKPGMS [S11C] | 4.86
TNIRLPNVPSNSLPAQPNRKPGMS [S11N] | 4.19
TNIRLPNVPSISLPAQPNRKPGMS [S11I] | 4.68
TNIRLPNVPSKSLPAQPNRKPGMS [S11K] | 4.49
TNIRLPNVPSQSLPAQPNRKPGMS [S11Q] | 4.53

Variant | protein stability index
TNIRLPNVPSVSLPAQPNRKPGMS [S11V] | 4.13
TNIRLPNVPSPSLPAQPNRKPGMS [S11P] | 4.61
TNIRLPNVPSFSLPAQPNRKPGMS [S11F] | 4.12
TNIRLPNWPSSSLPAQPNRKPGMS [V8W] | 4.19
TNIRLPNHPSSSLPAQPNRKPGMS [V8H] | 4.77
TNIRLPNKPSSSLPAQPNRKPGMS [V8K] | 4.63
TNIRLPNEPSSSLPAQPNRKPGMS [V8E] | 5.14
TNIRLPNGPSSSLPAQPNRKPGMS [V8G] | 4.47
TNIRLPNTPSSSLPAQPNRKPGMS [V8T] | 4.69
TNIRLPNSPSSSLPAQPNRKPGMS [V8S] | 4.49
TNIRLPNDPSSSLPAQPNRKPGMS [V8D] | 4.54
TNIRLPNPPSSSLPAQPNRKPGMS [V8P] | 5.05
TNIRLPNLPSSSLPAQPNRKPGMS [V8L] | 4.4
TNIRLPNIPSSSLPAQPNRKPGMS [V8I] | 4.76
TNIRLPNFPSSSLPAQPNRKPGMS [V8F] | 4.29
TNIRLPNCPSSSLPAQPNRKPGMS [V8C] | 3.99
TNIRLPNMPSSSLPAQPNRKPGMS [V8M] | 4.61
TNIRLPNQPSSSLPAQPNRKPGMS [V8Q] | 4.43
TNIRLPNNPSSSLPAQPNRKPGMS [V8N] | 4.58
TNIRLPNYPSSSLPAQPNRKPGMS [V8Y] | 4.02
TNIRLPNRPSSSLPAQPNRKPGMS [V8R] | 4.42
TNIRLPNAPSSSLPAQPNRKPGMS [V8A] | 4.51
